We go through 2 molecules from patent US20050048622A1 (Genentech, published 2005).

One experiment has as its target ErbB4.Fc (UniProt Q15303). The experiment is described as follows: displacement of ^125I-NRG3^EGF.Fc from immobilized ErbB4.Fc, 96-well plate.
The target of the next experiment is T1, human ErbB4 receptor (human, UniProt Q15303 26-1308).
T1 construct: whole, on cells; also called HER4; K562^erbB4 cells
The experiment can be described thus: FACS on K562^erbB4 cells.

A further experiment addresses T2, human ErbB2 receptor (human, UniProt P04626 23-1255).
T2 construct: whole, on cells; also called HER2; K562^erbB2 cells
The experiment can be described thus: FACS on K562^erbB2 cells.

Another experiment has as its target T3, human ErbB3 receptor (human, UniProt P21860 20-1342).
T3 construct: whole, on cells; also called HER3; K562^erbB3 cells
The experiment can be described thus: FACS on K562^erbB3 cells.

T3 sequence (P21860 20-1342): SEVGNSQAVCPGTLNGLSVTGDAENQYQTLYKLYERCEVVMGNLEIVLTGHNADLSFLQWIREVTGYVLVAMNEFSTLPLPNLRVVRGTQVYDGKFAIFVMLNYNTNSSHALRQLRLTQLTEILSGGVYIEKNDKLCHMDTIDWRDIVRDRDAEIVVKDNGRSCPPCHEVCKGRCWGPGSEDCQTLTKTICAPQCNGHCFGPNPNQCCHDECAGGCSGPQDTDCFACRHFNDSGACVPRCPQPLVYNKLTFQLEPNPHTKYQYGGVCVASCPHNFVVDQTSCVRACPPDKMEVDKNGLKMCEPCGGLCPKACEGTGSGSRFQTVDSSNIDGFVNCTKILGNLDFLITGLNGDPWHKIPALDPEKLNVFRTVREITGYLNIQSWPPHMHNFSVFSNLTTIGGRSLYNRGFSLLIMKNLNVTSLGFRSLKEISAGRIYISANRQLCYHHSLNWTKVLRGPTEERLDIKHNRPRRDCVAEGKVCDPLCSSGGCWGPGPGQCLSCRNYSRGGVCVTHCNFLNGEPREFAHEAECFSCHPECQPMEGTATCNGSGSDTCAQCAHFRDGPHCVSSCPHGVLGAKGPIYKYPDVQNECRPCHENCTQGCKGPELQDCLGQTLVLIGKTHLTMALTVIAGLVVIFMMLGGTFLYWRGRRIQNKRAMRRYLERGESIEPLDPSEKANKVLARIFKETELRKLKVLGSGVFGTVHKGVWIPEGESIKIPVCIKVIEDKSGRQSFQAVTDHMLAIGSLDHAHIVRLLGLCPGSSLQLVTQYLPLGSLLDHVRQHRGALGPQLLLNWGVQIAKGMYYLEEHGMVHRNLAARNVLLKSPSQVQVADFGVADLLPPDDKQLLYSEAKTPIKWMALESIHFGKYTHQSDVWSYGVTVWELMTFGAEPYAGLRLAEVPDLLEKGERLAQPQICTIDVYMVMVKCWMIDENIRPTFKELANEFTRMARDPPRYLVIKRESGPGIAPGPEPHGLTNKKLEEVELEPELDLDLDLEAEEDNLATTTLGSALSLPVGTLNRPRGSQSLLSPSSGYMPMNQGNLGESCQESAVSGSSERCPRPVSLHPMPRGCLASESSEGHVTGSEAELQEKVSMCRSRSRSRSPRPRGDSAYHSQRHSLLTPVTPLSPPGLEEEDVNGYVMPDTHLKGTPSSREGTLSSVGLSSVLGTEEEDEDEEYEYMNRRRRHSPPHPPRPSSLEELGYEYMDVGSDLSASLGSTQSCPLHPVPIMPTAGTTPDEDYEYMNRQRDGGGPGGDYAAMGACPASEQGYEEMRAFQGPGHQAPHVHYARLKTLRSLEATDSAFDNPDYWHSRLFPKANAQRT
Sequence of ErbB4.Fc (Q15303 26-651 limits assumed): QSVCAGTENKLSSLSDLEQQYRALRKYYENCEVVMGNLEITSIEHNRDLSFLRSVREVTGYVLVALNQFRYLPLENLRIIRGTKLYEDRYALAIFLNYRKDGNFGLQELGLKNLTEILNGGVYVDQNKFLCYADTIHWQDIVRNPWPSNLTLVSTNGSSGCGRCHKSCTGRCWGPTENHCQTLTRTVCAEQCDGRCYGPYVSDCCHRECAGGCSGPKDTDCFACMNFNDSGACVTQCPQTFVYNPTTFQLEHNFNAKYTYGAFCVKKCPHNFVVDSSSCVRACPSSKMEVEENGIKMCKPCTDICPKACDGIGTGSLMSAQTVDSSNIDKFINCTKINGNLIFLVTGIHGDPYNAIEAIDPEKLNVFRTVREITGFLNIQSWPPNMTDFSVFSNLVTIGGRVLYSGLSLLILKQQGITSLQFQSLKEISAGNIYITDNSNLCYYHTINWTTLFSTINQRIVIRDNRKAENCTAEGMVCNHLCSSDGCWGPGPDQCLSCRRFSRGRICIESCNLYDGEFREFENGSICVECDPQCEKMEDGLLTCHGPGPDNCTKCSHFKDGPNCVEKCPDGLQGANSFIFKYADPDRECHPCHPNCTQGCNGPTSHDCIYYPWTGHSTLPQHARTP
T1 sequence (Q15303 26-1308): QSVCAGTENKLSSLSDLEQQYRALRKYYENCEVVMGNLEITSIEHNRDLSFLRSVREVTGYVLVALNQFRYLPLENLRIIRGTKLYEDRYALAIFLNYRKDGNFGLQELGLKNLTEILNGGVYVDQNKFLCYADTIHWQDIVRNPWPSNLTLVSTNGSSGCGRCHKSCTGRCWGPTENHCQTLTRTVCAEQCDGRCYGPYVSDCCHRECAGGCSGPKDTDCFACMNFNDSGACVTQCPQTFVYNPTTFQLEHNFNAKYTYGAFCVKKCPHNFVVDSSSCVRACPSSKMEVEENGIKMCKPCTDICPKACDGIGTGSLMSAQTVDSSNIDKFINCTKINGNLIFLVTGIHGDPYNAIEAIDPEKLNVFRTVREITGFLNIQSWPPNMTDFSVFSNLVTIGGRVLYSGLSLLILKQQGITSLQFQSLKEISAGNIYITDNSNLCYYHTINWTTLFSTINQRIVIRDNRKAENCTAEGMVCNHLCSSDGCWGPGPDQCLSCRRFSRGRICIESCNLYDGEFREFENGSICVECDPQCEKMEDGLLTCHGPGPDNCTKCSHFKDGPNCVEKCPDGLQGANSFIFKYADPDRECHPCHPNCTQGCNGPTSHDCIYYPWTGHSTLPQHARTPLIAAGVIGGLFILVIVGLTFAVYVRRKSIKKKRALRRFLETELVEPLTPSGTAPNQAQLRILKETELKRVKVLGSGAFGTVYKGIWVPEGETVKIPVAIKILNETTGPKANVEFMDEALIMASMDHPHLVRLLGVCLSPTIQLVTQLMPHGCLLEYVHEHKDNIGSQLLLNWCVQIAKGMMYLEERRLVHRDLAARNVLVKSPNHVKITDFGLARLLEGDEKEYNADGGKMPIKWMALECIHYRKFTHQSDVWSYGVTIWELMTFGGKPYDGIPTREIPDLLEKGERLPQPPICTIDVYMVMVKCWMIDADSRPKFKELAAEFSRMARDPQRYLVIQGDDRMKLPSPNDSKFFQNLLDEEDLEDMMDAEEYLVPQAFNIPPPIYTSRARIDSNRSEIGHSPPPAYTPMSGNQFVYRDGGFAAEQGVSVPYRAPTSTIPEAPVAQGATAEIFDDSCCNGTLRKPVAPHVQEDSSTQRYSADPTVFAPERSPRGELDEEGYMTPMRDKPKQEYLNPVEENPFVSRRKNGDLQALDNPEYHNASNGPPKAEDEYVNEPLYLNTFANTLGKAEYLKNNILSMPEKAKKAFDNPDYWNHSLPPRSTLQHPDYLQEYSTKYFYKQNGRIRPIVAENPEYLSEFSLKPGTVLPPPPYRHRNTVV

What is called Ki is the equilibrium dissociation constant of an inhibitor or competing ligand from its target. A lower Ki goes with tighter binding. Turning to “NRG1^EGF (rHRGβ1 177-244) (from UniProt Q02297 177-244) (ligand)”, the Ki in the experiment with ErbB4.Fc amounted to 1 nM.

B1: RSE.Fc (Fc fusion, UniProt Q06418 41-428, looked up)
chain: AGLKLMGAPVKLTVSQGQPVKLNCSVEGMEEPDIQWVKDGAVVQNLDQLYIPVSEQHWIGFLSLKSVERSDAGRYWCQVEDGGETEISQPVWLTVEGVPFFTVEPKDLAVPPNAPFQLSCEAVGPPEPVTIVWWRGTTKIGGPAPSPSVLNVTGVTQSTMFSCEAHNLKGLASSRTATVHLQALPAAPFNITVTKLSSSNASVAWMPGADGRALLQSCTVQVTQAPGGWEVLAVVVPVPPFTCLLRDLVPATNYSLRVRCANALGPSPYADWVPFQTKGLAPASAPQNLHAIRTDSGLILEWEEVIPEAPLEGPLGPYKLSWVQDNGTQDELTVEGTRANLTGWDPQKDLIVRVCVSNAVGCGPWSQPLVVSSHDRAGQQGPPHSRTS
notes: Control; also called control fusion protein; control receptor RSE.Fc; not shown: Fc part
In the case of B1, the binding result with human ErbB4 receptor, in the experiment with human ErbB2 receptor and with human ErbB3 receptor was “no binding” in each case.
